Results published in patent publication US20120283184A1 (published 2012).

Biological target: T1, human vascular endothelial growth factor receptor-2 Fc chimera (KDR-Fc) (human, UniProt P35968 20-764)
T1 construct: range 1-764; also called human VEGFR-2; not shown: human IgG1 Fc
Assay: radioactive equilibrium binding, 1 nM KDR-Fc, % of input
Description: To prepare ³⁵S-labeled binding proteins for analysis, mRNA was prepared as described above for RNA-protein fusion production but the linker ligation step was omitted. The mRNA was expressed using rabbit reticulocyte lysate translation kit (Ambion) in the presence of ³⁵S-labeled Met at 30° C. for 1 hour. Expressed protein was purified on M2-agarose Flag beads (Sigma) as described above. This procedure produced the encoded protein without the nucleic acid tail. In a direct binding assay, VEGF-R2-Fc fusions in concentrations ranging from 0 to 200 nM were added to a constant concentration of the purified protein (0.2 or 0.5 nM) and incubated at 30° C. for 1 hour in buffer B. The receptor-binder complexes were captured using Protein A magnetic beads for another 10 minutes at room temperature using a Kingfisher™ The beads were washed with six reaction volumes of buffer B. The protein was eluted from the beads with 100 μL of 0.1 M KOH. 50 μL of the reaction mixture and elution were dried onto a LumaPlate-96 (Packard) and the amount of ³⁵S on the plate was measured using a TopCount NXT instrument (Packard). The amount of fibronectin-based scaffold protein bound to the target was estimated as a percent of radioactivity eluted from Protein A magnetic beads compare to radioactivity in the reaction mixture. Nonspecific binding of fibronectin-based scaffold proteins to the beads was determined by measuring binding in the absence of KDR-Fc and represented less than 1-2% of the input. Specific binding was obtained through subtraction of nonspecific binding from total binding. Data was analyzed using the GraphPad Prizm software (GraphPad Software, Inc, San Diego, Calif.), fitted using a one site, non-linear binding equation.

T1 sequence (P35968 20-764 limits assumed, change not shown, form in doubt): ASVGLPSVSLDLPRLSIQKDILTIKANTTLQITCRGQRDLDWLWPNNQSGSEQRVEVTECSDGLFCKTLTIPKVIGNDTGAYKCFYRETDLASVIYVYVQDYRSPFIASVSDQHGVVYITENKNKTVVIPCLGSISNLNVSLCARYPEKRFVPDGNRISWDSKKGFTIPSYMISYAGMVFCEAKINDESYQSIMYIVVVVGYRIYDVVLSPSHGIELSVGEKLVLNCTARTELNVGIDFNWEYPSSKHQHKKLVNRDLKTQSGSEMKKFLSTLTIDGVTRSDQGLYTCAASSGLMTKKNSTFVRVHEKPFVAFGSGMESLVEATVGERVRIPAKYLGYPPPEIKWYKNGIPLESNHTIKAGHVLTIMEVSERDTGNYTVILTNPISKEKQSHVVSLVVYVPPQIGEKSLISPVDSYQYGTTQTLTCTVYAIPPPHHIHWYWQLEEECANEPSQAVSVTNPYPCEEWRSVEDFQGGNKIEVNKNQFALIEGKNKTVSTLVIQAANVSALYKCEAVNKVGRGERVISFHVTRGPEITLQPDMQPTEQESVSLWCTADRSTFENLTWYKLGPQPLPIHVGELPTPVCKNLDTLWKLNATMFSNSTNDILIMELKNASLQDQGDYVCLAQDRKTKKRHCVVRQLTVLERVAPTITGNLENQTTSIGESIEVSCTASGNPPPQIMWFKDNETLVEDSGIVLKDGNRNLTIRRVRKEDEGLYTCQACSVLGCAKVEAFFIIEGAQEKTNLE

Row | Binder | Binding to 1 nM KDR, % [%]
1 | 3′E11 PR4 (designed binder) EVVAATPTSLLISWRHPHFPTRYYRITYGETGGNSPVQEFTVPLQPPTATISGLKPGVDYTITVYAVTVGPHDRELLTPISINYRT | 17
2 | 3′D3 PR4 (designed binder) EVVAATPTSLLISWRHPHFPTRYYRITYGETGGNSPVQEFTVPLQPPTATISGLKPGVDYTITVYAVTPGPGDRELITPISINYRT | 42
3 | 3′A6 PR4 (designed binder) EVVAATPTSLLISWRHPHFPTRYYRITYGETGGNSPVQEFTVPLQPPTATISGLKPGVDYTITVYAVTLAQNGHELLTPISINYRT | 19
4 | 3C7 PR3 (designed binder) EVVAATPTSLLISWRHPHFPTRYYRITYGETGGNSPVQEFTVPLQPPTATISGLKPGVDYTITVYAVTRGLNDGELLTPISINYRT | 20
5 | 3′D8 PR4 (designed binder) EVVAATPTSLLISWRHPHFPTRYYRITYGETGGNSPVQEFTVPLQPPTATISGLKPGVDYTITVYAVTAGPNDHQLFTPISINYRT | 27
6 | 3′E10 PR4 (designed binder) EVVAATPTSLLISWRHPHFPTRYYRITYGETGGNSPVQEFTVPLQPPTATISGLKPGVDYTITVYAVTAGHKDQELLTPISINYRT | 21
7 | 3F10 PR3 (designed binder) EVVAATPTSLLISWRHPHFPTRYYRITYGETGGNSPVQEFTVPLQPPTATISGLKPGVDYTITVYAVTLAQDDHELLTPISINYRT | 16
8 | 3′E9 PR4 (designed binder) EVVAATPTSLLISWRHPHFPTRYYRITYGETGGNSPVQEFTVPLQPPTATISGLKPGVDYTITVYAVTVEQDGHVLYIPISINYRT | 44
9 | 3′E3 PR4 (designed binder) EVVAATPTSLLISWRHPHFPTRYYRITYGETGGNSPVQEFTVPLQPPTATISGLKPGVDYTITVYAVTMAQYGRELLTPISINYRT | 41
10 | 3′F6 PR4 (designed binder) EVVAATPTSLLISWRHPHFPTRYYRITYGETGGNSPVQEFTVPLQPPTATISGLKPGVDYTITVYAVTIEQSGLQLMTPISINYRT | 24
11 | 3′A7 PR4 (designed binder) EVVAATPTSLLISWRHPHFPTRYYRITYGETGGNSPVQEFTVPLQPPTATISGLKPGVDYTITVYAVTLSDSGHALFTPISINYRT | 34
12 | 3′B4 PR4 (designed binder) EVVAATPTSLLISWRHPHFPTRYYRITYGETGGNSPVQEFTVPLQPPTATISGLKPGVDYTITVYAVTVAWNGHELMTPISINYRT | 38
13 | 3′B11 PR4 (designed binder) EVVAATPTSLLISWRHPHFPTRYYRITYGETGGNSPVQEFTVPLQPPTATISGLKPGVDYTITVYAVTETWNDHEIRTPISINYRT | 23
14 | 3′D2 PR4 (designed binder) EVVAATPTSLLISWRHPHFPTRYYRITYGETGGNSPVQEFTVPLQPPTATISGLKPGVDYTITVYAVTVESNGHALFVPISINYRT | 19
15 | 3′A9 PR4 (designed binder) EVVAATPTSLLISWRHPHFPTRYYRITYGETGGNSPVQEFTVPLQPPTATISGLKPGVDYTITVYAVTLAHNDRELLTPISINYRT | 25
16 | 3′C3 PR4 (designed binder) EVVAATPTSLLISWRHPHFPTRYYRITYGETGGNSPVQEFTVPLQPPTATISGLKPGVDYTITVYAVTMAQNGHALFTPISINYRT | 32
17 | 3′B12 PR4 (designed binder) EVVAATPTSLLISWRHPHFPTRYYRITYGETGGNSPVQEFTVPLQPPTATISGLKPGVDYTITVYAVTVAHENRELLTPISINYRT | 28
18 | 3C9 PR3 (designed binder) EVVAATPTSLLISWRHPHFPTRYYRITYGETGGNSPVQEFTVPLQPPTATISGLKPGVDYTITVYAVTLVRNDHELLTPISINYRT | 16
19 | 3′B8 PR4 (designed binder) EVVAATPTSLLISWRHPHFPTRYYRITYGETGGNSPVQEFTVPLQPPTATISGLKPGVDYTITVYAVTLGYHDHALFTPISINYRT | 14
20 | 3′E1 PR4 (designed binder) EVVAATPTSLLISWRHPHFPTRYYRITYGETGGNSPVQEFTVPLQPPTATISGLKPGVDYTITVYAVTVAPNGHELFTPISINYRT | 32
21 | 3′C8 PR4 (designed binder) EVVAATPTSLLISWRHPHFPTRYYRITYGETGGNSPVQEFTVPLQPPTATISGLKPGVDYTITVYAVTEGLNDHELMIPISINYRT | 19
22 | 3′F2 PR4 (designed binder) EVVAATPTSLLISWRHPHFPTRYYRITYGETGGNSPVQEFTVPLQPPTATISGLKPGVDYTITVYAVTLGKNDHELLTPISINYRT | 29
23 | 3′C12 PR4 (designed binder) EVVAATPTSLLISWRHPHFPTRYYRITYGETGGNSPVQEFTVPLQPPTATISGLKPGVDYTITVYAVTIGPNNHELLTPISINYRT | 33
24 | 3′B2 PR4 (designed binder) EVVAATPTSLLISWRHPHFPTRYYRITYGETGGNSPVQEFTVPLQPPTATISGLKPGVDYTITVYAVTVGRNDRELLTPISINYRT | 29

Next, values leading:

Row | Binding to 1 nM KDR, % [%] | Binder
25 | 17 | 3C3 PR3 (designed binder) EVVAATPTSLLISWRHPHFPTRYYRITYGETGGNSPVQEFTVPLQPPTATISGLKPGVDYTITVYAVTMEQNGHELFTPISINYRT
26 | 27 | 3′C5 PR4 (designed binder) EVVAATPTSLLISWRHPHFPTRYYRITYGETGGNSPVQEFTVPLQPPTATISGLKPGVDYTITVYAVTDAMYGRELMTPISINYRT
27 | 20 | 3G2 PR3 (designed binder) EVVAATPTSLLISWRHPHFPTRYYRITYGETGGNSPVQEFTVPLQPPTATISGLKPGVDYTITVYAVTFGPSDHVLLTPISINYRT
28 | 30 | 3′D9 PR4 (designed binder) EVVAATPTSLLISWRHPHFPTRYYRITYGETGGNSPVQEFTVPLQPPTATISGLKPGVDYTITVYAVTGYYNDRELLTPISINYRT
29 | 23 | 3′E5 PR4 (designed binder) EVVAATPTSLLISWRHPHFPTRYYRITYGETGGNSPVQEFTVPLQPPTATISGLKPGVDYTITVYAVTVAWDGRELFTPISINYRT
30 | 37 | 3′F3 PR4 (designed binder) EVVAATPTSLLISWRHPHFPTRYYRITYGETGGNSPVQEFTVPLQPPTATISGLKPGVDYTITVYAVTLGHNDRELLTPISINYRT
31 | 21 | 3′B10 PR4 (designed binder) EVVAATPTSLLISWRHPHFPTRYYRITYGETGGNSPVQEFTVPLQPPTATISGLKPGVDYTITVYAVTLAQTGRELLTPISINYRT
32 | 27 | 3′A8 PR4 (designed binder) EVVAATPTSLLISWRHPHFPTRYYRITYGETGGNSPVQEFTVPLQPPTATISGLKPGVDYTITVYAVTVAWDDHELLTPISINYRT
33 | 24 | 3D12 PR3 (designed binder) EVVAATPTSLLISWRHPHFPTRYYRITYGETGGNSPVQEFTVPLQPPTATISGLKPGVDYTITVYAVTLGQNDRQLLVPISINYRT
34 | 25 | 3′B1 PR4 (designed binder) EVVAATPTSLLISWRHPHFPTRYYRITYGETGGNSPVQEFTVPLQPPTATISGLKPGVDYTITVYAVTEARNGRELLTPISINYRT
35 | 31 | 3′F1 PR4 (designed binder) EVVAATPTSLLISWRHPHFPTRYYRITYGETGGNSPVQEFTVPLQPPTATISGLKPGVDYTITVYAVTVAQDGHFLYTPISINYRT
36 | 17 | 3F8 PR3 (designed binder) EVVAATPTSLLISWRHPHFPTRYYRITYGETGGNSPVQEFTVPLQPPTATISGLKPGVDYTITVYAVTVAQNGHELKTPISINYRT
